Results as given in PMC4914320.

Target: Telomeric repeat binding factor 2 (TRF2), endogenous (human (endogenous in C1, UTC8505, RD and HEK293T cells))
Test: proximity ligation; Duolink PLA in fixed, permeabilised C1 cells with antibodies to HMGA2 (D1A7), TRF2 and RAP1; a minimum of 30 nuclei quantified

B1: High Mobility Group AT-hook protein 2 (HMGA2), endogenous (natural protein)
chain: MSARGEGAGQPSTSAQGQPAAPAPQKRGRGRPRKQQQEPTGEPSPKRPRGRPKGSKNKSPSKAAQKKAEATGEKRPRGRPRKWPQQVVQKKPAQEETEETSSQESAEED
B1 showed a PLA foci per nucleus (PLA foci per nucleus) of 5.
